Data from US20250361274A1, “PEPTIDE AND PEPTIDE-CONTAINING AGENT” (PEPTIDREAM INC., priority 2022, published 2025).
Numbered stars: 1 amine (or outer) side, 2 acyl side, 3 side chain; on linkers, the order of the positions; unused ones are H or OH. Bridge positions count the residues as written; N and C are the ends. Square brackets hold non-standard residues; d marks the D form. Ends that are not written are not given here. Hgn = (S)-2,6-diamino-6-oxohexanoic acid, NC(=O)CCC[C@H](N[*:1])C(=O)[*:2]; Ala(2-NH2-4-pyridyl) = Nc1cc(C[C@H](N)C(=O)O)ccn1; Phe(4-COOH) = N[C@@H](Cc1ccc(C(=O)O)cc1)C(=O)O; Bip = N[C@@H](Cc1ccc(-c2ccccc2)cc1)C(=O)O; cisHyp = O=C(O)[C@@H]1C[C@H](O)CN1; Hyp = O=C(O)[C@@H]1C[C@@H](O)CN1; NMeF = CN[C@@H](Cc1ccccc1)C(=O)O; Aad = N[C@@H](CCCC(=O)O)C(=O)O; Cha = N[C@@H](CC1CCCCC1)C(=O)O; Ahp(2) = CCCCC[C@H](N)C(=O)O; Chg = N[C@H](C(=O)O)C1CCCCC1; Abu = CC[C@H](N)C(=O)O

How the values were obtained:
[1] = target: T1, BMP4 (Homo sapiens, UniProt P12644); test: BMP4 signal transduction inhibitory activity: SMAD1 phosphorylation by BMP4 stimulus, AlphaLISA SureFire, A549 cells; format: cell-based; conditions: SMAD1 phosphorylation, BMP4 0.2 nM; peptide conc. in assay 0.2, 2, 20 nM
T1 sequence (P12644 293-408): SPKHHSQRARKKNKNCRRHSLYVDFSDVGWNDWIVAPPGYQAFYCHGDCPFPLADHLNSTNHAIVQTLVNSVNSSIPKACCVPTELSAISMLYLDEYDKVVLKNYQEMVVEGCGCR

[2] = target: T2, BMP7 (Homo sapiens, UniProt P18075); test: BMP7 signal transduction inhibitory activity: SMAD1 phosphorylation by BMP7 stimulus, A549 cells; format: cell-based; conditions: SMAD1 phosphorylation, BMP7 10 nM; peptide conc. in assay 1, 10, 100 nM
T2 sequence (P18075 293-431): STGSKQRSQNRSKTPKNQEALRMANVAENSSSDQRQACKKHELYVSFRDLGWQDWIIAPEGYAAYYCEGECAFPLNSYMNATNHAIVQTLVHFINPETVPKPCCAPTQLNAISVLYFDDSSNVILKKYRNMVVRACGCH
Summary of the method: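 A549 cells were stimulated with 10 nM BMP7, and the read-out was SMAD1 phosphorylation. Peptides were tested at three concentrations spanning 1 to 1,000 nM, with sets depending on the peptide series. Some peptides were run in eight-point 1/3 dilutions starting from 100 nM or 1,000 nM, with recombinant human Noggin as positive control at matching concentrations.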

Substance	aLISA BMP4 (0.2 nM) % inh [1]	aLISA BMP7 (10 nM) % inh [2]
337 (FG[NMeF]G[Bip]GDD[Cha][Aad][NMeF]LHCG-NH2; not fully specified (N-terminus, bridges)) [compound 337]	ND (the inhibitory activity was less than 30% at the maximum concentration evaluated)	D (showed less than 30% of inhibitory activity in 10 nM-addition zone and showed 30% or more of inhibitory activity in 100 nM-addition zone)
338 ({CH2CO}-FG[NMeF]G[Bip]GDD[Cha][Ahp(2)][NMeF]LHCG-NH2; thioether N-14) [compound 338]	ND (the inhibitory activity was less than 30% at the maximum concentration evaluated)	D (showed less than 30% of inhibitory activity in 10 nM-addition zone and showed 30% or more of inhibitory activity in 100 nM-addition zone)
339 (FG[NMeF]G[Bip]GDD[Cha][Abu][NMeF]LHCG-NH2; not fully specified (N-terminus, bridges)) [compound 339]	ND (the inhibitory activity was less than 30% at the maximum concentration evaluated)	D (showed less than 30% of inhibitory activity in 10 nM-addition zone and showed 30% or more of inhibitory activity in 100 nM-addition zone)
340 (FG[NMeF]G[Bip]GDD[Cha]Q[NMeF]LHCG-NH2; not fully specified (N-terminus, bridges)) [compound 340]	ND (the inhibitory activity was less than 30% at the maximum concentration evaluated)	D (showed less than 30% of inhibitory activity in 10 nM-addition zone and showed 30% or more of inhibitory activity in 100 nM-addition zone)
341 (FG[NMeF]G[Bip]GDD[Cha]S[NMeF]LHCG-NH2; not fully specified (N-terminus, bridges)) [compound 341]	ND (the inhibitory activity was less than 30% at the maximum concentration evaluated)	D (showed less than 30% of inhibitory activity in 10 nM-addition zone and showed 30% or more of inhibitory activity in 100 nM-addition zone)
342 (FG[NMeF]G[Bip]GDD[Cha]T[NMeF]LHCG-NH2; not fully specified (N-terminus, bridges)) [compound 342]	ND (the inhibitory activity was less than 30% at the maximum concentration evaluated)	D (showed less than 30% of inhibitory activity in 10 nM-addition zone and showed 30% or more of inhibitory activity in 100 nM-addition zone)
343 (FG[NMeF]G[Bip]GDD[Cha][Hgn][NMeF]LHCG-NH2; not fully specified (N-terminus, bridges)) [compound 343]	ND (the inhibitory activity was less than 30% at the maximum concentration evaluated)	D (showed less than 30% of inhibitory activity in 10 nM-addition zone and showed 30% or more of inhibitory activity in 100 nM-addition zone)
344 (FG[NMeF]G[Bip]GDD[Cha]A[NMeF][Cha]HCG-NH2; not fully specified (N-terminus, bridges)) [compound 344]	A (showed less than 30% of inhibitory activity in 2 nM-peptide-addition zone and showed 30% or more of inhibitory activity in 20 nM-addition zone)	D (showed less than 30% of inhibitory activity in 10 nM-addition zone and showed 30% or more of inhibitory activity in 100 nM-addition zone)
345 (FG[NMeF]G[Bip]GDD[Cha]A[NMeF][Ahp(2)]HCG-NH2; not fully specified (N-terminus, bridges)) [compound 345]	A (showed less than 30% of inhibitory activity in 2 nM-peptide-addition zone and showed 30% or more of inhibitory activity in 20 nM-addition zone)	D (showed less than 30% of inhibitory activity in 10 nM-addition zone and showed 30% or more of inhibitory activity in 100 nM-addition zone)
346 (FG[NMeF]G[Bip]GDD[Cha]A[NMeF]IHCG-NH2; not fully specified (N-terminus, bridges)) [compound 346]	ND (the inhibitory activity was less than 30% at the maximum concentration evaluated)	D (showed less than 30% of inhibitory activity in 10 nM-addition zone and showed 30% or more of inhibitory activity in 100 nM-addition zone)
347 (FG[NMeF]G[Bip]GDD[Cha]A[NMeF][Chg]HCG-NH2; not fully specified (N-terminus, bridges)) [compound 347]	ND (the inhibitory activity was less than 30% at the maximum concentration evaluated)	D (showed less than 30% of inhibitory activity in 10 nM-addition zone and showed 30% or more of inhibitory activity in 100 nM-addition zone)
348 (FG[NMeF]G[Bip]GDD[Cha]A[NMeF]LACG-NH2; not fully specified (N-terminus, bridges)) [compound 348]	A (showed less than 30% of inhibitory activity in 2 nM-peptide-addition zone and showed 30% or more of inhibitory activity in 20 nM-addition zone)	D (showed less than 30% of inhibitory activity in 10 nM-addition zone and showed 30% or more of inhibitory activity in 100 nM-addition zone)
349 (FG[NMeF]G[Bip]GDD[Cha]A[NMeF]LLCG-NH2; not fully specified (N-terminus, bridges)) [compound 349]	ND (the inhibitory activity was less than 30% at the maximum concentration evaluated)	D (showed less than 30% of inhibitory activity in 10 nM-addition zone and showed 30% or more of inhibitory activity in 100 nM-addition zone)
350 (FG[NMeF]G[Bip]GDD[Cha]A[NMeF]L[Abu]CG-NH2; not fully specified (N-terminus, bridges)) [compound 350]	ND (the inhibitory activity was less than 30% at the maximum concentration evaluated)	D (showed less than 30% of inhibitory activity in 10 nM-addition zone and showed 30% or more of inhibitory activity in 100 nM-addition zone)
351 (FG[NMeF]G[Bip]GDD[Cha]A[NMeF]L[Ala(2-NH2-4-pyridyl)]CG-NH2; not fully specified (N-terminus, bridges); also: cyclic peptide, ring closure not given here) [compound 351]	ND (the inhibitory activity was less than 30% at the maximum concentration evaluated)	D (showed less than 30% of inhibitory activity in 10 nM-addition zone and showed 30% or more of inhibitory activity in 100 nM-addition zone)
352 (FG[NMeF]G[Bip]GDD[Cha]A[NMeF]LGCG-NH2; not fully specified (N-terminus, bridges); also: cyclic peptide, ring closure not given here) [compound 352]	ND (the inhibitory activity was less than 30% at the maximum concentration evaluated)	D (showed less than 30% of inhibitory activity in 10 nM-addition zone and showed 30% or more of inhibitory activity in 100 nM-addition zone)
353 (FG[NMeF]G[Bip]GDD[Cha]A[NMeF]LSCG-NH2; not fully specified (N-terminus, bridges); also: cyclic peptide, ring closure not given here) [compound 353]	ND (the inhibitory activity was less than 30% at the maximum concentration evaluated)	D (showed less than 30% of inhibitory activity in 10 nM-addition zone and showed 30% or more of inhibitory activity in 100 nM-addition zone)
354 (FG[NMeF]G[Bip]GDD[Cha]A[NMeF]LNCG-NH2; not fully specified (N-terminus, bridges)) [compound 354]	ND (the inhibitory activity was less than 30% at the maximum concentration evaluated)	D (showed less than 30% of inhibitory activity in 10 nM-addition zone and showed 30% or more of inhibitory activity in 100 nM-addition zone)
355 (FG[NMeF]G[Bip]GDD[Cha]A[NMeF]L[Hyp]CG-NH2; not fully specified (N-terminus, bridges)) [compound 355]	A (showed less than 30% of inhibitory activity in 2 nM-peptide-addition zone and showed 30% or more of inhibitory activity in 20 nM-addition zone)	D (showed less than 30% of inhibitory activity in 10 nM-addition zone and showed 30% or more of inhibitory activity in 100 nM-addition zone)
356 (FG[NMeF]G[Bip]GDD[Cha]A[NMeF]L[cisHyp]CG-NH2; not fully specified (N-terminus, bridges)) [compound 356]	A (showed less than 30% of inhibitory activity in 2 nM-peptide-addition zone and showed 30% or more of inhibitory activity in 20 nM-addition zone)	C (showed less than 30% of inhibitory activity in a zone to which the peptide was added in an amount of 1 nM and showed 30% or more of inhibitory activity in 10 nM-addition zone)
357 (FG[NMeF]G[Bip]GDD[Cha]A[NMeF]L[Phe(4-COOH)]CG-NH2; not fully specified (N-terminus, bridges)) [compound 357]	ND (the inhibitory activity was less than 30% at the maximum concentration evaluated)	D (showed less than 30% of inhibitory activity in 10 nM-addition zone and showed 30% or more of inhibitory activity in 100 nM-addition zone)
